These are literature values, as cited in PMC8249329.

The target of this series is ACE2 (Homo sapiens) (UniProt Q9BYF1).
Chain of ACE2 (Homo sapiens) (Q9BYF1 18-740): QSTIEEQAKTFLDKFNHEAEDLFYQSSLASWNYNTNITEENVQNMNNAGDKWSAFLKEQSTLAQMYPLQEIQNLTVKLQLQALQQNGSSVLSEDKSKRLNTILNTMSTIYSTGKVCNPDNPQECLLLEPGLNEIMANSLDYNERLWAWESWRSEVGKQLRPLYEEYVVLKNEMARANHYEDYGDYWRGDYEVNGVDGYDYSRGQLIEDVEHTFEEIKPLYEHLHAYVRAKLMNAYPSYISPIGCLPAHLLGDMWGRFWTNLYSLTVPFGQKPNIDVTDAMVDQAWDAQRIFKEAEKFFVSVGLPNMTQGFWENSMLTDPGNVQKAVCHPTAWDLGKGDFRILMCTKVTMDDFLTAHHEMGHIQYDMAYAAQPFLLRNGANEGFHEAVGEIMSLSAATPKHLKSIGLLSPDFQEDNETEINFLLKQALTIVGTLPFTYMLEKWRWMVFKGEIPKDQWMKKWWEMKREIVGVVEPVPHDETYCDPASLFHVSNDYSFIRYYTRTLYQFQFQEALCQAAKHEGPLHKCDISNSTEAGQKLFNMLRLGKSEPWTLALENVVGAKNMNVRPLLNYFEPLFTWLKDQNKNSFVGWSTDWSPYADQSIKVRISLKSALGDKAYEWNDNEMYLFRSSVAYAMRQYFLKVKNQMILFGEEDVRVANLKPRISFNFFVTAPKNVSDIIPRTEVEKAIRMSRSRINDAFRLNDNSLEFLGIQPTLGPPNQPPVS

Chain of HCoV-NL63 spike RBD (Q6Q1S2 481-616): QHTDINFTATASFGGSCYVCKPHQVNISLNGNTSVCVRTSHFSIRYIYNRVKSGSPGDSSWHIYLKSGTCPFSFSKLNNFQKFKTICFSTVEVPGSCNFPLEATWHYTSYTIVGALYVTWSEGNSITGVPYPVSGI

On to “HCoV-NL63 spike RBD (from UniProt Q6Q1S2)”, for which the Kd (in general, the equilibrium constant for the complex coming apart) was 35 nM.
